Read-outs that look alike come from different tables or passages of the source.
Substance | degradation_or_half_life (O-GlcNAc at S554) | degradation_or_half_life (O-GlcNAc at T553)
ERα: GREB1-KO | decreases | decreases
ERα: ERα-2M (T553A + S554A) in GREB1-KO cells | no change | no change

Reference: article PMC7968844
